{
  "source": "patent US20140348819A1",
  "about": "“Methods of Treating Cancer” (Dana-Farber Cancer Institute, Inc., priority 2011, published 2014)",
  "molecules": {"B1": {"name": "Gas6 (protein, UniProt Q14393 31-678, looked up)", "Growth arrest-specific …": "ALLPAREATQFLRPRQRRAFQVFEEAKQGHLERECVEELCSREEAREVFENDPETDYFYPRYLDCINKYGSPYTKNSGFATCVQNLPDQCTPNPCDRKGTQACQDLMGNFFCLCKAGWGGRLCDKDVNECSQENGGCLQICHNKPGSFHCSCHSGFELSSDGRTCQDIDECADSEACGEARCKNLPGSYSCLCDEGFAYSSQEKACRDVDECLQGRCEQVCVNSPGSYTCHCDGRGGLKLSQDMDTCEDILPCVPFSVAKSVKSLYLGRMFSGTPVIRLRFKRLQPTRLVAEFDFRTFDPEGILLFAGGHQDSTWIVLALRAGRLELQLRYNGVGRVTSSGPVINHGMWQTISVEELARNLVIKVNRDAVMKIAVAGDLFQPERGLYHLNLTVGGIPFHEKDLVQPINPRLDGCMRSWNWLNGEDTTIQETVKVNTRMQCFSVTERGSFYPGSGFAFYSLDYMRTPLDVGTESTWEVEVVAHIRPAADTGVLFALWAPDLRAVPLSVALVDYHSTKKLKKQLVVLAVEHTALALMEIKVCDGQEHVVTVSLRDGEATLEVDGTRGQSEVSAAQLQERLAVLERHLRSPVLTFAGGLPDVPVTSAPVTAFYRGCMTLEVNRRLLDLDEAAYKHSDITAHSCPPVEPAAA"}},
  "system": "six V600E BRAF melanoma cell lines",
  "test": "Screening of recombinant RTK ligands for ability to confer resistance to BRAFi (PLX4720) or MEKi (PD184352) (Table 4)",
  "assay_type": "cell-based, human",
  "set-up": "ability of recombinant RTK ligand to confer resistance / ability of recombinant RTK ligand to confer resistance (screening value): scale not given here",
  "outline": "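Six V600E BRAF melanoma lines treated with PLX4720 or PD184352 after addition of 22 recombinant RTK ligands, scored for drug resistance. Activation of selected RTKs confirmed by western blotting and high-throughput tyrosine kinase phosphorylation profiling.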",
  "data": [
    {"molecule": "B1", "values": [
      {"measurement": "ability of recombinant RTK ligand to confer resistance", "setting": "A2058, PD184352 - 1 uM, ligand 6.25 ng/ml", "result": 0.99},
      {"measurement": "ability of recombinant RTK ligand to confer resistance", "setting": "A2058, PD184352 - 1 uM, ligand 25 ng/ml", "result": 0.97},
      {"measurement": "ability of recombinant RTK ligand to confer resistance", "setting": "A2058, PD184352 - 1 uM, ligand 100 ng/ml", "result": 1.02},
      {"measurement": "ability of recombinant RTK ligand to confer resistance", "setting": "A2058, PD184352 - 1 uM, ligand 400 ng/ml", "result": 0.97},
      {"measurement": "ability of recombinant RTK ligand to confer resistance", "setting": "A2058, PD184352 - 1 uM, ligand 1600 ng/ml", "result": 0.95},
      {"measurement": "ability of recombinant RTK ligand to confer resistance", "setting": "A2058, PLX4720 - 2 uM, ligand 6.25 ng/ml", "result": 1.01},
      {"measurement": "ability of recombinant RTK ligand to confer resistance", "setting": "A2058, PLX4720 - 2 uM, ligand 25 ng/ml", "result": 1.00},
      {"measurement": "ability of recombinant RTK ligand to confer resistance", "setting": "A2058, PLX4720 - 2 uM, ligand 100 ng/ml", "result": 0.98},
      {"measurement": "ability of recombinant RTK ligand to confer resistance", "setting": "A2058, PLX4720 - 2 uM, ligand 400 ng/ml", "result": 0.98},
      {"measurement": "ability of recombinant RTK ligand to confer resistance", "setting": "A2058, PLX4720 - 2 uM, ligand 1600 ng/ml", "result": 0.97},
      {"measurement": "ability of recombinant RTK ligand to confer resistance", "setting": "C32, PD184352 - 1 uM, ligand 6.25 ng/ml", "result": 1.02},
      {"measurement": "ability of recombinant RTK ligand to confer resistance", "setting": "C32, PD184352 - 1 uM, ligand 25 ng/ml", "result": 1.01},
      {"measurement": "ability of recombinant RTK ligand to confer resistance", "setting": "C32, PD184352 - 1 uM, ligand 100 ng/ml", "result": 1.01},
      {"measurement": "ability of recombinant RTK ligand to confer resistance", "setting": "C32, PD184352 - 1 uM, ligand 400 ng/ml", "result": 1.15},
      {"measurement": "ability of recombinant RTK ligand to confer resistance", "setting": "C32, PD184352 - 1 uM, ligand 1600 ng/ml", "result": 0.91},
      {"measurement": "ability of recombinant RTK ligand to confer resistance", "setting": "C32, PLX4720 - 2 uM, ligand 6.25 ng/ml", "result": 1.05},
      {"measurement": "ability of recombinant RTK ligand to confer resistance", "setting": "C32, PLX4720 - 2 uM, ligand 25 ng/ml", "result": 0.89},
      {"measurement": "ability of recombinant RTK ligand to confer resistance", "setting": "C32, PLX4720 - 2 uM, ligand 100 ng/ml", "result": 1.00},
      {"measurement": "ability of recombinant RTK ligand to confer resistance", "setting": "C32, PLX4720 - 2 uM, ligand 400 ng/ml", "result": 1.05},
      {"measurement": "ability of recombinant RTK ligand to confer resistance", "setting": "C32, PLX4720 - 2 uM, ligand 1600 ng/ml", "result": 0.95},
      {"measurement": "ability of recombinant RTK ligand to confer resistance", "setting": "Colo 829, PD184352 - 1 uM, ligand 6.25 ng/ml", "result": 0.98},
      {"measurement": "ability of recombinant RTK ligand to confer resistance", "setting": "Colo 829, PD184352 - 1 uM, ligand 25 ng/ml", "result": 1.01},
      {"measurement": "ability of recombinant RTK ligand to confer resistance", "setting": "Colo 829, PD184352 - 1 uM, ligand 100 ng/ml", "result": 0.98},
      {"measurement": "ability of recombinant RTK ligand to confer resistance", "setting": "Colo 829, PD184352 - 1 uM, ligand 400 ng/ml", "result": 0.99},
      {"measurement": "ability of recombinant RTK ligand to confer resistance", "setting": "Colo 829, PD184352 - 1 uM, ligand 1600 ng/ml", "result": 1.02},
      {"measurement": "ability of recombinant RTK ligand to confer resistance", "setting": "Colo 829, PLX4720 - 2 uM, ligand 6.25 ng/ml", "result": 0.97},
      {"measurement": "ability of recombinant RTK ligand to confer resistance", "setting": "Colo 829, PLX4720 - 2 uM, ligand 25 ng/ml", "result": 1.02},
      {"measurement": "ability of recombinant RTK ligand to confer resistance", "setting": "Colo 829, PLX4720 - 2 uM, ligand 100 ng/ml", "result": 0.94},
      {"measurement": "ability of recombinant RTK ligand to confer resistance", "setting": "Colo 829, PLX4720 - 2 uM, ligand 400 ng/ml", "result": 0.99},
      {"measurement": "ability of recombinant RTK ligand to confer resistance", "setting": "Colo 829, PLX4720 - 2 uM, ligand 1600 ng/ml", "result": 1.03},
      {"measurement": "ability of recombinant RTK ligand to confer resistance", "setting": "G-361, PD184352 - 1 uM, ligand 6.25 ng/ml", "result": 1.03},
      {"measurement": "ability of recombinant RTK ligand to confer resistance", "setting": "G-361, PD184352 - 1 uM, ligand 25 ng/ml", "result": 1.00},
      {"measurement": "ability of recombinant RTK ligand to confer resistance", "setting": "G-361, PD184352 - 1 uM, ligand 100 ng/ml", "result": 0.91},
      {"measurement": "ability of recombinant RTK ligand to confer resistance", "setting": "G-361, PD184352 - 1 uM, ligand 400 ng/ml", "result": 0.94},
      {"measurement": "ability of recombinant RTK ligand to confer resistance", "setting": "G-361, PD184352 - 1 uM, ligand 1600 ng/ml", "result": 0.88},
      {"measurement": "ability of recombinant RTK ligand to confer resistance", "setting": "G-361, PLX4720 - 2 uM, ligand 6.25 ng/ml", "result": 0.97},
      {"measurement": "ability of recombinant RTK ligand to confer resistance", "setting": "G-361, PLX4720 - 2 uM, ligand 25 ng/ml", "result": 0.95},
      {"measurement": "ability of recombinant RTK ligand to confer resistance", "setting": "G-361, PLX4720 - 2 uM, ligand 100 ng/ml", "result": 0.98},
      {"measurement": "ability of recombinant RTK ligand to confer resistance", "setting": "G-361, PLX4720 - 2 uM, ligand 400 ng/ml", "result": 0.97},
      {"measurement": "ability of recombinant RTK ligand to confer resistance", "setting": "G-361, PLX4720 - 2 uM, ligand 1600 ng/ml", "result": 0.85},
      {"measurement": "ability of recombinant RTK ligand to confer resistance", "setting": "SK-MEL-5, PD184352 - 1 uM, ligand 6.25 ng/ml", "result": 0.99},
      {"measurement": "ability of recombinant RTK ligand to confer resistance", "setting": "SK-MEL-5, PD184352 - 1 uM, ligand 25 ng/ml", "result": 1.01},
      {"measurement": "ability of recombinant RTK ligand to confer resistance", "setting": "SK-MEL-5, PD184352 - 1 uM, ligand 100 ng/ml", "result": 0.97},
      {"measurement": "ability of recombinant RTK ligand to confer resistance", "setting": "SK-MEL-5, PD184352 - 1 uM, ligand 400 ng/ml", "result": 0.89},
      {"measurement": "ability of recombinant RTK ligand to confer resistance", "setting": "SK-MEL-5, PD184352 - 1 uM, ligand 1600 ng/ml", "result": 0.94},
      {"measurement": "ability of recombinant RTK ligand to confer resistance", "setting": "SK-MEL-5, PLX4720 - 2 uM, ligand 6.25 ng/ml", "result": 0.98},
      {"measurement": "ability of recombinant RTK ligand to confer resistance", "setting": "SK-MEL-5, PLX4720 - 2 uM, ligand 25 ng/ml", "result": 1.00},
      {"measurement": "ability of recombinant RTK ligand to confer resistance", "setting": "SK-MEL-5, PLX4720 - 2 uM, ligand 100 ng/ml", "result": 1.03},
      {"measurement": "ability of recombinant RTK ligand to confer resistance", "setting": "SK-MEL-5, PLX4720 - 2 uM, ligand 400 ng/ml", "result": 1.05},
      {"measurement": "ability of recombinant RTK ligand to confer resistance", "setting": "SK-MEL-5, PLX4720 - 2 uM, ligand 1600 ng/ml", "result": 0.97},
      {"measurement": "ability of recombinant RTK ligand to confer resistance", "setting": "SK-MEL-28, PD184352 - 1 uM, ligand 6.25 ng/ml", "result": 1.03},
      {"measurement": "ability of recombinant RTK ligand to confer resistance", "setting": "SK-MEL-28, PD184352 - 1 uM, ligand 25 ng/ml", "result": 0.87},
      {"measurement": "ability of recombinant RTK ligand to confer resistance", "setting": "SK-MEL-28, PD184352 - 1 uM, ligand 100 ng/ml", "result": 1.00},
      {"measurement": "ability of recombinant RTK ligand to confer resistance", "setting": "SK-MEL-28, PD184352 - 1 uM, ligand 400 ng/ml", "result": 1.01},
      {"measurement": "ability of recombinant RTK ligand to confer resistance", "setting": "SK-MEL-28, PD184352 - 1 uM, ligand 1600 ng/ml", "result": 1.14},
      {"measurement": "ability of recombinant RTK ligand to confer resistance", "setting": "SK-MEL-28, PLX4720 - 2 uM, ligand 6.25 ng/ml", "result": 1.13},
      {"measurement": "ability of recombinant RTK ligand to confer resistance", "setting": "SK-MEL-28, PLX4720 - 2 uM, ligand 25 ng/ml", "result": 0.96},
      {"measurement": "ability of recombinant RTK ligand to confer resistance", "setting": "SK-MEL-28, PLX4720 - 2 uM, ligand 100 ng/ml", "result": 1.04},
      {"measurement": "ability of recombinant RTK ligand to confer resistance", "setting": "SK-MEL-28, PLX4720 - 2 uM, ligand 400 ng/ml", "result": 1.08},
      {"measurement": "ability of recombinant RTK ligand to confer resistance", "setting": "SK-MEL-28, PLX4720 - 2 uM, ligand 1600 ng/ml", "result": 1.22}
    ]}
  ]
}
